In patent publication US20190241669A1 (published 2019):
Substitutions are numbered along the chain they refer to.

B1: C01_Rd4_6nM_C26 (antibody, V domains shown)
VH: EVQLLESGGGLVQPGGSLRLSCAASGFTFSSYPMSWVRQAPGKGLEWVSAIGGSGGSLPYADSVKGRFTISRDNSKNTLYLQMNSLRAEDTAVYYCARYWPMDSWGQGTLVTVSS
VL: EIVLTQSPGTLSLSPGERATLSCRASQSVSALYLAWYQQKPGQAPRLLIYDASSRAPGIPDRFSGSGSGTDFTLTISRLEPEDFAVYYCQQYSAWPLTFGQGTKVEIK
notes: IgG
B2: COMBO_Rd4_0.6nM_C09 (antibody, V domains shown)
VH: B1 VH with S104I
VL: B1 VL with A31S, L32T, I49M, S54I, P57T, S93Q, A94E
notes: IgG
B3: COMBO_Rd4_0.6nM_C20 (antibody, V domains shown)
VH: B1 VH
VL: B1 VL with A31Y, I49M, S54I, P57T, S93M, A94E
notes: IgG
B4: COMBO_Rd4_0.6nM_C19 (antibody, V domains shown)
VH: B1 VH
VL: B1 VL with L32V, I49M, S54I, P57T, S93R
notes: IgG
B5: COMBO_Rd4_0.6nM_C17 (antibody, V domains shown)
VH: B1 VH with S104I
VL: B1 VL with S28G, V29I, A31S, L32T, I49M, S54I, P57T, S93A, A94Y
notes: IgG
B6: COMBO_Rd4_0.6nM_C11 (antibody, V domains shown)
VH: B1 VH with I51A, G52L, L58T, P59Y, D103S, S104L
VL: B1 VL with A31V, L32R, I49M, S54I, P57T, S93G, A94S, L97I
notes: IgG
B7: COMBO_Rd4_0.6nM_C05 (antibody, V domains shown)
VH: B1 VH with P33A, S35N, L58T, P59Y, D103S, S104L
VL: B1 VL with A31S, L32T, I49M, S54I, P57T, S93M, A94S
notes: IgG
B8: COMBO_Rd4_0.6nM_C02 (antibody, V domains shown)
VH: B1 VH
VL: B1 VL with Q27I, S28A, A31S, L32T, I49M, S54I, P57T, S93M, A94V
notes: IgG
B9: COMBO_Rd4_0.6nM_C14 (antibody, V domains shown)
VH: B1 VH with S104I
VL: B1 VL with I49M, S54I, P57T, S93Y, A94G
notes: IgG
B10: COMBO_Rd4_0.6nM_C04 (antibody, V domains shown)
VH: B1 VH with I51H, G52I, L58T, P59Y
VL: B1 VL with A31S, L32T, I49M, S54I, P57T, S93Q, A94S
notes: IgG
B11: COMBO_Rd4_0.6nM_C23 (antibody, V domains shown)
VH: B1 VH with I51L, G52F, L58T, P59Y
VL: B1 VL with A25P, S26R, A31S, L32S, I49M, S54I, P57T, S93Q, A94D
notes: IgG

Key:
[1] = target: T1, cynomolgus monkey BCMA (cynomolgus monkey, UniProt A0A2K5UD97 1-53); assay: SPR, IgG on chip, cyBCMA analyte
T1 construct: Soluble analyte in SPR; construct not described; also called cyBCMA; Cyno BCMA
T1 sequence (A0A2K5UD97 entry or part of it): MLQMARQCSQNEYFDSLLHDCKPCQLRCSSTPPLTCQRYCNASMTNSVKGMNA

[2] = target: Human BCMA (human) (UniProt Q02223); assay: SPR, IgG on chip, huBCMA analyte

| Binder | Kd [1] | koff [1] | kon [1] | Kd [2] | koff [2] | kon [2] |
| --- | --- | --- | --- | --- | --- | --- |
| B1 | 0.419 nM | 0.00199 s⁻¹ | 4.75e+06 M⁻¹ s⁻¹ | 0.09 nM | 0.00136 s⁻¹ | 1.5e+07 M⁻¹ s⁻¹ |
| B2 | 0.092 nM | 0.000346 s⁻¹ | 3.77e+06 M⁻¹ s⁻¹ | 0.031 nM | 0.000319 s⁻¹ | 1.04e+07 M⁻¹ s⁻¹ |
| B3 | 0.092 nM | 0.000284 s⁻¹ | 3.09e+06 M⁻¹ s⁻¹ | 0.019 nM | 0.000146 s⁻¹ | 7.65e+06 M⁻¹ s⁻¹ |
| B4 | 0.336 nM | 0.000979 s⁻¹ | 2.92e+06 M⁻¹ s⁻¹ | 0.02 nM | 0.000155 s⁻¹ | 7.86e+06 M⁻¹ s⁻¹ |
| B5 | 0.33 nM | 0.00101 s⁻¹ | 3.06e+06 M⁻¹ s⁻¹ | 0.092 nM | 0.000801 s⁻¹ | 8.68e+06 M⁻¹ s⁻¹ |
| B6 | 1.92 nM | 0.00423 s⁻¹ | 2.2e+06 M⁻¹ s⁻¹ | 0.207 nM | 0.00106 s⁻¹ | 5.11e+06 M⁻¹ s⁻¹ |
| B7 | 0.886 nM | 0.00172 s⁻¹ | 1.94e+06 M⁻¹ s⁻¹ | 0.115 nM | 0.000497 s⁻¹ | 4.32e+06 M⁻¹ s⁻¹ |
| B8 | 0.164 nM | 0.000494 s⁻¹ | 3.01e+06 M⁻¹ s⁻¹ | 0.022 nM | 0.000185 s⁻¹ | 8.57e+06 M⁻¹ s⁻¹ |
| B9 | 0.185 nM | 0.000645 s⁻¹ | 3.48e+06 M⁻¹ s⁻¹ | 0.038 nM | 0.000328 s⁻¹ | 8.66e+06 M⁻¹ s⁻¹ |
| B10 | 0.039 nM | 0.000137 s⁻¹ | 3.52e+06 M⁻¹ s⁻¹ | 0.015 nM | 0.000158 s⁻¹ | 1.07e+07 M⁻¹ s⁻¹ |
| B11 | 0.189 nM | 0.000531 s⁻¹ | 2.81e+06 M⁻¹ s⁻¹ | 0.028 nM | 0.00021 s⁻¹ | 7.39e+06 M⁻¹ s⁻¹ |
